The results in this text go back to publication PMC3643581.

In the data set the target is rPTB4 (pQE-PTB4) (UniProt P26599 1-557). In words: UV cross-linking.
Sequence of rPTB4 (pQE-PTB4) (P26599 whole entry): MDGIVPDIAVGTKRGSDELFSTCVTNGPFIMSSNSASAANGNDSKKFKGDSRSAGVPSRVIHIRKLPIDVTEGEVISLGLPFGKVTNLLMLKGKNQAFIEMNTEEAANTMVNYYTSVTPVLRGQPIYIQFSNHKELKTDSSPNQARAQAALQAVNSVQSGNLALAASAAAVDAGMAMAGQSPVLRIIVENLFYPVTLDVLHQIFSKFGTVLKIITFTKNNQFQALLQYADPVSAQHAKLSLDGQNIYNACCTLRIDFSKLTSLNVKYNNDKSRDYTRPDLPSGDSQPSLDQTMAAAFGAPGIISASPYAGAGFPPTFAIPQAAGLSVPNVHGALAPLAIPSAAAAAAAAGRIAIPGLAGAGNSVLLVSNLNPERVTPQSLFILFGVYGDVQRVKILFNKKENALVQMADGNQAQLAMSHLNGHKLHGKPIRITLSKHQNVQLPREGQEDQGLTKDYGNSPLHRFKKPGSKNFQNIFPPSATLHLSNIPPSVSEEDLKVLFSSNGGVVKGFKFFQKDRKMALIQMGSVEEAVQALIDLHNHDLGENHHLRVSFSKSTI

GGGAGACAAGCUCCUCCUGCGCUCUUUGCUUGCCCUGCUGUGUCGAAUU (ssRNA) [MBNL SELEX RNA D12]: the binding result is “no binding”.
